In the supplement of paper PMC10567573:

Test: protein stability index of a GFP-peptide fusion (GPS, HEK-293T) (PSI 1-6); higher = more stable
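Also: lentivirally expressed fusions sorted by FACS into six bins by GFP to DsRed ratio, PSI derived from sequencing read proportions per bin multiplied by bin number.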

Q: With GGYFKARLKFPIDYPYSPPAFRFL [CDC34 WT] as the protein, how does the protein stability index (parent: IOH1870_10, c terminus: a fixed tail appended) read?
A: 2.41

Q: Which protein stability index (parent: IOH1937_41, c terminus: a fixed tail appended) does the source give for YSLTTSSTHKRSSLRKVKLVRPPQ [RAB40B WT] here?
A: 2.95

Q: Which protein stability index (parent: IOH1962_3, c terminus: a fixed tail appended) does the source give for IRRAYPDANLLNDRVLRAMLKAEE here?
A: 2.62

Q: Which protein stability index (parent: IOH1962_29, c terminus: a fixed tail appended) does the source give for PEAEENKQIIRKHAQTFVALCATD here?
A: 2.89

Q: For RVRSLETENRRLESKIREHLEKKG, which protein stability index (parent: IOH2946_17, c terminus: a fixed tail appended) is on record?
A: 4.39

Q: For PQVRDWSHYFKIIEDLRAQIFANT, which protein stability index (parent: IOH2946_21, c terminus: a fixed tail appended) is on record?
A: 2.07

Q: For KSQDLAKIMADIRAQYDELARKNR, which protein stability index (parent: IOH2946_41, c terminus: a fixed tail appended) is on record?
A: 2.6

Q: With RAQYDELARKNREELDKYWSQQIE as the protein, how does the protein stability index (parent: IOH2946_43, c terminus: a fixed tail appended) read?
A: 3.04

Q: Which protein stability index (parent: IOH3100_16, c terminus: a fixed tail appended) does the source give for SLREYNDFLEEVEEIVFNLTNNVD here?
A: 2

Q: With LAPIHKLEEALYEYQPLQIETYGP as the protein, how does the protein stability index (parent: IOH3100_40, c terminus: a fixed tail appended) read?
A: 1.96

Q: With LEEALYEYQPLQIETYGPHVPELE as the protein, how does the protein stability index (parent: IOH3100_41, c terminus: a fixed tail appended) read?
A: 2.7

Q: Which protein stability index (parent: IOH3143_22, c terminus: a fixed tail appended) does the source give for DLSRLVNCLTGEGEDTRLSASEMK [CIB1 WT] here?
A: 3.05

Q: For EAEEEELRAELTKVEEEIVTLRQV [TPD52L2 WT], which protein stability index (parent: IOH3163_8, c terminus: a fixed tail appended) is on record?
A: 4.06

Q: With YNIATRRKALKNPSEEYGKILEVV [MLH1 WT] as the protein, how does the protein stability index (parent: IOH3190_27, c terminus: a fixed tail appended) read?
A: 2.51

Q: With FTGRDSITCLTCQGTGYIPTEQVN as the protein, how does the protein stability index (parent: IOH3247_8, c terminus: a fixed tail appended) read?
A: 1.83

Q: For YVTTNVSLIPPRSEQLVNFTGKAE, which protein stability index (parent: IOH3247_29, c terminus: a fixed tail appended) is on record?
A: 1.77

Q: For SEQLVNFTGKAEMGGPFSYVYFFC, which protein stability index (parent: IOH3247_31, c terminus: a fixed tail appended) is on record?
A: 2.53

Q: With TVPEILVHNIVIFMRTSVKISYIG as the protein, how does the protein stability index (parent: IOH3247_35, c terminus: a fixed tail appended) read?
A: 3.44

Q: For YDPDYIQCPYCQRRFNENAADRHI [FAM164A WT], which protein stability index (parent: IOH3371_20, c terminus: a fixed tail appended) is on record?
A: 4.12

Q: With TCADRDNLTRRFSDLGFEVKCFND [CASP6 WT] as the protein, how does the protein stability index (parent: IOH3453_12, c terminus: a fixed tail appended) read?
A: 3.21

Q: Which protein stability index (parent: IOH3571_2, c terminus: a fixed tail appended) does the source give for FVELQGFLAAEQDIREEIRKVVQS here?
A: 2.08

Q: For FLAAEQDIREEIRKVVQSLEQTAR, which protein stability index (parent: IOH3571_3, c terminus: a fixed tail appended) is on record?
A: 1.8

Q: Which protein stability index (parent: IOH3571_18, c terminus: a fixed tail appended) does the source give for AFVVYLETETLVTREAVTEILGIE here?
A: 2.25

Q: With CHICHKKLYTGPGLAIHCMQVHKE as the protein, how does the protein stability index (parent: IOH3584_7, c terminus: a fixed tail appended) read?
A: 3.29

Q: Which protein stability index (parent: IOH3584_22, c terminus: a fixed tail appended) does the source give for FQPQPVQPQQGYIPPMAQPGLPPV here?
A: 3.18

Q: Which protein stability index (parent: IOH3584_46, c terminus: a fixed tail appended) does the source give for FPSAGQAQAAVQGPVGTDFKPLNS here?
A: 3.51

Q: Which protein stability index (parent: IOH3584_75, c terminus: native) does the source give for YQGGPPRPPMGMRPPVMSQGGRY here?
A: 1.94
